Results as given in the DeepSol protein solubility set.

Assay: soluble on expression in E. coli; label from the status in PepcDB or PDB records

| Sequence | soluble on expression in E. coli |
| --- | --- |
| MAHHHHHHMYYIYIYIYENGSAYQKDNDNTVENKLLENLYKLELIDNYDTPLSRVSRTDKGVSARINGINLRLNIKYENVPIFEIEKKYVKELKKKLKNIHIHDIKHVSNTFDARLNCIQRTYVYFFINKNYNIEKMKKAAKLFIGEHDFSNCCKKGKNVTSNRRTVLKFDIRNIDKHFYYFKIKGISFLYNQIRHMVAILFLVGKGLLDNNDVNNILNNTSTKRKNYHIADENGLLLYSFKFNDYKYNNHVNNKIFLNVMNKYIQSTMLLVSLCHPLKLENKNEDFFENLDDEDIKNDVIHNNMIKEINKK | not soluble |
| MAHHHHHHNEKDIGKLKKTFEAFDHNGDGVLTISEIFQCLKLNDNELDTELYFLLKQLDTDGNGLIDYTEFLAACLDHSIFQQDVICRNAFNVFDLDGDGVITKEELFNILSFSAVQVSFSKEIIENLIKEVDANNDGFIDYDEFYKMMTGAK | soluble |
| MAHHHHHHQTQTPSQLLQSFTTRTTDYNQLINSVGINAITPQQIQRIEKLSGKAPHHYLSRGVFLAEKSLDKFLDDVEAKKPTFIFIQKYPQKEVALEEYITLEFARYLQDAFNIQVIIQILDDIKVLNREATINEASKMSNDLMKYILAFGFNEDKTFIYTDYQYFGKMYRTISLVEKATAYNVVQPFFNFEYSDNIGKLASPSIMTASMFSQSYSHFFSSPARCLVLDSIKNVQFHSIIDQIATTLNFIQPTVLFHKMVPLLSGVTKFDIPSDHNSILLSDNAKQVERKINKLAFSGGRNTTEEHKKLGGQCDIDVSFQLLNIFSSDNAQVKDVEEKYSKGELLSGELKKIVSASMKDFIVAYDAKKKPITTAYLKAYISKTKF | soluble |
| MAHHHHHHSLIDGLLITELNKLTPGSSYIFLDYDGTLVPIIMNPEQSLADPELIEMLTELRSKYKLFIVSGRSPEEIKRFIPLDLNLICYHGACSIVNGKTYYYNNAQSFLGIFNEIYQSSLNLVNEFPGLRIYKKNLAVLYHFGLMKPQDVPALERVIVEISQKEHVDVYKGKMIFELRVPGVNKGIAIKNVRDEETALIAGDDATDECSFKYNEDAITIKVGPGKTSAHFRVNDYSEMREVLKLLLNNAEKRSEG | soluble |
| MAHHHHHHSLITANDIRAAHARGEQAMSVVLRASIITPEAREVAELLGFTITECDESVPASTSAQACKSESQRIREAIIAQLPEGQFTESLVAQLMEKVLKEKQSLELGTMQPSFTSVTGKGGVKVIDGSSVKFGRFDGAEPHCVGLTDLVTEQDGSSMAAGFMQWDNAFFPWTLNYDEIDMVLEGELHVRHEGETMIAKAGDVMFIPKGSSIEFGTPTSVRFLYVAWPANWQSVEG | soluble |
| MAHHHHHHSLKKPTHSGSGQIRIIGGQWRGRKLPVPDSPGLRPTTDRVRETLFNWLAPVMVDAHCLDCFAGSGALGLEALSRYAAQATLLEMDRAVSQQLQKNLATLKANNARVVNTNTLTFLSQPGTPHHVVFVDPPFRKGLLEETLQLLETQGWLADDALIYVESEVENGLPPVPANWALYREKVAGQVAYRLYQRDAQGENDVD | soluble |
| MAHHHHHHSLSLQVTTKTGKESQKKTQTTAKSTITVDIKGAVKHEGVYTLPIDSRINDVIEKAGGFSEKADRKSVNLAQKLQDEAVIYVAAIGENISVIRDSQEGKTSQADKANTKETSVKGKVNLNTATLADLQTISGIGEKKAQDILDYREANGGFKSVDDLKNISGIGDKTFEKLKDLVSVDEG | not soluble |
| MAHHHHHHSTLRHSHEPSPYVQKGEDLSGQKLTPTIKSYRNMEFLNSYSGRMIRILCEFEEPKQRLQQHFIRTTVLFFGSARSMTQAQYDSTVQDIHSKLAAATDDSTKASLQNKLACLKKTQWMCKWVDVVENLARMVAEFSQKEQDMIIRSFRHIPDYFRLTPEDGSESLDDLQKRFHDLVVTTGGGPGFMEAANHGAESVPGAVTMGMGISLPFENGLNPHVTKGLAFEFHYFFTRKFWMMYSCRAIVIAPGGFGTLDEMFELLTLKQTKKIPSLPVVLLGKEFWQTVVNWQALANYGVISQEEIDSLLFTDSAEEAVEHIKDFYHRLASDSPSTE | soluble |
| MAHHHHHHVDDDDKMVPYTVRFTTTARRDLHKLPPRILAAVVEFAFGDLSREPLRVGKPLRRELAGTFSARRGTYRLLYRIDDEHTTVVILRVDHRADIYRR | soluble |
| MAHHHHHHVSASPPQRDRGSPPTRPLSEPQDVDAPAAGTVQALRQAVEAQEACVRLLRARQAAREALLRHTRRLLTADDSIEWPGSVEQLVRQVEASLHKLQQAHSEAAAPAATTADNVAPTSAPSRSPRNAAGDADPSADPLARIFHSGVEAQLAAVAEPPHTLPASTLASRSSTAKRRKEAGESGLTNAVSTTSPPPGGPFPPRSAAMTALLARSASRQEAGHAAMLAALSALELSLMSNSGATEVGRDVHNAEPAWLRQVDSDSANDDDAAPEEQQQEKEGNRGDIASSDYSDDFECGSSTSSGADD | soluble |
| MAHHTKETMELIKELVSIPSPSGNTAKIINFIENYVSEWNVETKRNNKGALILTVKGKNDAQHRLLTAHVDTLGAMVKEIKPDGRLSLSMIGGFRWNSVEGEYCEIETSSGKTYTGTILMHQTSVHVYKDAGEAKRDEKNIEVRIDERVFSADEVRELGIEVGDFVSFDPRVQITESGYIKSRHLDDKVSVAILLKLIKRLQDENVTLPYTTHFLISNNEEIGYGGNSNIPEETVEYLAVDMGALGDGQASDEYTVSICAKDSSGPYHYALRKHLVELAKTNHIEYKVDIYPYYGSDASAAIRAGFDVKHALIGAGIDSSHAFERTHESSIAHTEALVYAYVMSNLIEE | soluble |
| MAHLSYWFKQALELEQPQPAKPLNEDIAADVAIIGGGYTGLWTAIMIKQQAPKKHVVVIEKGLCGSGASGANGGCMLTWSTKFPTLKRLFGEAQAAWLVKESEQAVLEIDAFCKQHHIDAQLSLKGVYYTATNHVQAGSMQPVVDELSRLGVNSWRRCKEDELHANTGSPRHLEGFHSSVAASVQPALLARGLRRVALEMGIEIFENTPMTKLDFGQPATVSTPDAQIKAKQVVLALNAWMVEHFTQFKNSIVVVSSDMVITKPLGESLRKTGWQAGTSVLDSRIFVHYYRDTPDGRLMLGKGGNQFSFNNQVDVMFNKPTRYQNLLRKSFDKLFPSLKEAEFEYSWTGGSDRSTSGFPFFGKLNEQRNVFYGFGYSGNGVAQTRMGGKILSSMVLGLDNEWTRSGLAKGPLGHFPPEPFRWIGAMTVRNAVRRKEEAEDCGQKPFIWDKWLAKLAGPAGKADKLDLEHHHHHH | soluble |
| MAHTGRMFKIEAAEIVVARLPLKFRFETSFGVQTHKVVPLLILHGEGVQGVAEGTMEARPMYREETIAGALDLLRGTFLPAILGQTFANPEAVSDALGSYRGNRMARAMVEMAAWDLWARTLGVPLCTLLGGHKEQVEVGVSLGIQADEQATVDLVRRHVEQGYRRIKLKIKPGWDVQPVRATREAFPDIRLTVDANSAYTLADAGRLRQLDEYDLTYIEQPLAWDDLVDHAELARRIRTPLCLDESVASASDARKALALGAGGVINLKVARVGGHAESRRVHDVAQSFGAPVWCGGMLESGIGRAHNIHLSCLSNFRLPGDTSSASRYWERDLIQEPLEAVDGLMPVPQGPGTGVTLDREFLATVTEAQEEHRA | soluble |
| MAICILHYTNAQLARDWSFQQMCNFWGGEQTYHARKDGFKSLEGDKCTFNFPKASDNQKSAQQYCEDNVPYHINNAEASEYKTTCEAEATLICKSGWVQMFGRCYKITKTMMTRDKAEKHCKNQQDQTSTIAFMHREALPFRWNDYFTRVSRIWMDASEVVTNDLIYDVEGGNVLLAFDGYKYNLPNVAIARVSKDETAMVLCEYTPPMTKSESNYLLRRYGEIYYPPLVTSEAVYIRTTSSRIRNEEDKLADHKYCTEVMKPVFRGGRAQSASPTQGLHMPTQMRGINKSAPFKQNPTIKGEAVPFPLDNAIWRKGEPNESCDAATWSSAVVLSRRENEGLEVMSDARYAPIYCEQIVKGLSYTKCPDGFVEYYRKNEGKTWCHKYVWDDTANYDNAEQKCQQLGAHLSSFTSDEEFQFLNDMIAKSEQLPNTDYIEVLLGARRRKRCNDLSIVGRGGFSSDKESECSRRRVFEWLHDVAENPPNFLDAYWPSPYEPNHALVDEECLVMMSGKTNGGMVMEQGN | not soluble |
| MAIDFHLSASQKGTYQAARSLARNLLMPARQTYLQHPPNSPLRFQSTQPTYAAAVSAGILKGQISPAHGGTGGTLIESAILVEECYSVEPSAALTIFATGLGLTPINLAAGPQHAEFLAPFLSGEGSPLASLVFSEPGGVANALEKGAPGFQTTARLEGDEWVINGEKMWATNCAGWDFKGCDLACVVCRDATTPLEEGQDPENKVMIILVTRADLDRNGEGSFEVLRHVATPGHTSVSGPHVRYTNVRVPTKNVLCPAGQGAKVAFGAFDGSAVLVGAMGVGLMRAAFDAALKFAKEDNRGGAVPLLERQAFADLLSGVKIQTEAARALTWKAAHAMENGPGDYDARRELALAAKVFCSEAAVKACTDVINAVGISAYDLQRPFSDLLNTAVVLPIFDGGNVGIRRRHLQQLMLKPTYDAWSSTYGSFPGSHHHHHH | soluble |
| MAIDNIKAYVHLSDADIEEIGRRLDQIKAEVTQSLGARDVAYIKRLIRTQRSLEAAGRFALLFAGNKKCWWLGTGLLSTAKILENLEIGHNVLHGQWDWMNDPEIHSTTWEWDIVCPSSQWMHSHNFVHHTYTNVLGMDNDVGYGILRVTRDRKWTPLHAFQPAVNTVLAAMFQWAVGYYDVELGRYLTKRADWNDTKDKFWETTNKAGRQLARDYVFYPALARKAFPQAVKANAVANLVRSVWAYSVIFCGHFPDEAETFTKEQFKNEDHNQWYLRQMLGSANFYGGKLLTIMSGNLNYQIEHHLFPDMPSNRLAEVGEKVRALCDEYDLPYNVDSFPAQLFKVQKTLLKLTLPNKYLVASPDNAPEVRSNRAFSQNPEIENQLAGGSNGSGLRTGLKLLKRLRPSIKDAILIYSGRKPRGNQQR | not soluble |
| MAIGFICSSPDAELFSEKSRMSSSVLLGCLLCCMDWSAAVPGKTEPFRKLFDAIMIKKLKSCSAAYPSDLDEGSMCDMADASPTSLELGLSKLDKES | not soluble |
| MAIIASNNSWDLYQLAVVILNYRTPQLVVDCLASLVSQIDPQTQQVIVVDNASGDDSVEEIEKAIANNNWQDWVRLLPSDVNGGFSAGNNLGIQAIRAENYLLLNSDTIVRPGAIQTLLVALEQYPEAGLFSPRLEWPDGTPQISCFRDHSPLSEMIDGARTSVITKLLQPFDVPIPVTEQSFEPQWTSFACVLIRRSVVEQIGLMDDGYFMYYDDIDYCRRARQAAWKIRYIPQASVVHLRGGSGSVKSDVASRKRPRPYLYASRSRYFAKFYGPLGLALANLGWLGGWGIAALREILGQKEPHTCDRQWQDIWFQWRQPLKPYRPELEHHHHHH | soluble |
| MAIKNAFYAQSGGVTAVINASACGVIQTARKHPDQIGKVYAGRNGIIGALKEELIDTSLESDDAIQALIHTPGGAFGSCRYKLKNISENQREYERLIEVFRAHDIGYFFYNGGGDSQDTAYKVSQLADRMGYPITCIGVPKTVDNDLPFTDCCPGFGSVAKYIATSTLEASLDIKSMCETSTKVFILEVMGRHAGWIAAAGGLAGQSEGEPPHVILFPEIPFNREKFLERVDQCVRDYGYCVVVASEGAQYEDGRFVADAGAKDAFGHTQLGGVAPALANMVKQALGHKYHWAVADYLQRAARHIASATDVEQAYAVGKAAVEMALAGKQALMPTIVRDQAKPYRWSIGEANLSEVANQEKKMPIHYITDNGFGITQDCRDYLQPLIAGESFPPFDDGLPRVAKLKNQLVEKKLRTEFEL | soluble |
| MAINLQTLFKKKREGKKITMVSTYDYWSAKLCDEVGIDCILVGDSLGTVVKGEGDTLSVTLEEIIYHTKCVMRGVKNAFVIADMPFMSYQVSMEKAVENCGRVIKETKAKAVKLEGGEEIAELVYKLTRIGIPVVGHVGFTPQHINVFGKPKVVGKKKEEEEKLRRDFRALEEAGAFMIVLESVPTHLAKELWKGSNSIVIGIGAGKYVDGQVLVFHDIVGLFEDFKPKFVRRYLEGAKLVKEALKNFKIDVEGGNFPSEEESYG | not soluble |
